Data on four molecules can be found in patent US20250320305A1 (Hoffmann-La Roche, published 2025).

Assay [1] deals with T1, human CD40 expressed on cells (human, UniProt P25942 21-277). The experiment in a line: cell-based or functional assay.
Assay [2] addresses T2, human Fibroblast Activation Protein (FAP) expressed on cells (human, UniProt Q12884 1-760).
T2 construct: Cell-surface human FAP on transfected HEK or NIH/3T3 cells; also called huFAP; human FAP-transfected HEK cells
The experiment in a line: flow cytometry, NIH/3T3-huFAP cells.
Experimental: (§1) Plates were centrifuged 5 minutes at 1700 rpm and supernatants were flicked off. […] All samples were resuspended in 50 μL/well of 4° C. cold FACS buffer containing the bispecific antigen binding molecules (primary antibody) or the isotype control antibody DP47 at the indicated range of concentrations (in duplicates) and incubated for 120 minutes at 4° C. Afterwards the cells were washed three times with 200 μL 4° C. cold FACS buffer. […] Data analysis was performed using the FlowJo version 10 software (FlowJo LLC).

For assay [3], the target named is T1, human CD40 expressed on cells. Put plainly: flow cytometry, primary human B cells.
Experimental: as §1
For assay [4], the target named is T3, His-tagged human FAP ectodomain (human, UniProt Q12884 27-760).
T3 construct: also called hu FAP ectodomain+poly-lys-tag+his6-tag; His-tagged FAP antigen
The experiment in a line: SPR, His-tagged human FAP ectodomain as ligand.

Assay [5] addresses T4, biotinylated recombinant human FAP (human, UniProt Q12884 26-760, biotinylated).
T4 construct: also called biotinylated human FAP
Put plainly: SPR (Biacore), biotinylated recombinant human FAP.

In assay [6] the target is T4, biotinylated recombinant human FAP. Put plainly: SPR (Biacore), biotinylated huFAP on CAPture chip, Fab analyte.
Experimental: As running and dilution buffer, HBS-P+ (10 mM HEPES, 150 mM NaCl pH 7.4, 0.05% Surfactant P20) was used. A dilution series of anti-huFAP Fabs (3.7-300 nM, 1:3 dilution) was successively injected for 120 s each, dissociation was monitored for 1800 s at a flow rate of 30 μl/min (single cycle kinetics). The surface was regenerated by injecting 6 M guanidine-HCl, 0.25 M NaOH for 120 s. Bulk refractive index differences were corrected by subtracting blank injections and by subtracting the response obtained from the control flow cell without captured human FAP. Curve fitting was performed using the 1:1 Langmuir binding model within the Biacore evaluation software.
Assay [7] addresses T5, human DPP-IV expressed on transfected HEK cells (human, UniProt P27487 1-766).
T5 construct: whole, on cells; also called dipeptidyl peptidase IV
Put plainly: flow cytometry, human DPPIV-transfected HEK cells.
Experimental: Binding to human FAP and human DPP-IV was determined by flow cytometry using human FAP or human DPPIV-transfected HEK cells. Briefly, the target cells were harvested with Cell Dissociation buffer, washed with FACS Buffer (PBS+2% FCS+5 mM EDTA+0.25% sodium acide) and seeded into 96-U bottom plates (1×10⁵ cells/well). Unlabeled primary antibodies were added to the cells (final concentration 10 μg/ml) and incubated for 30 min at 4° C. After washing, cells were incubated with a goat anti-mouse IgG-PE F(ab′)₂ (Serotec) for 30 min at 4° C. in the dark. Afterwards, cells were washed, fixed and measured using a BD FACS Canto™ II.

Assay [8] deals with T2, human Fibroblast Activation Protein …. Put plainly: flow cytometry, huFAP-transfected HEK cells.
Experimental: (§2) The binding of anti-FAP antibodies with a human IgG1 P329G LALA Fc to human FAP was determined by flow cytometry using human FAP-transfected HEK cells. Briefly, the target cells were harvested with Cell Dissociation buffer, washed with FACS Buffer (PBS+2% FCS+5 mM EDTA+0.25% sodium acide) and seeded into 96-U bottom plates (1×10^5 cells/well). Unlabeled primary antibodies were added to the cells (final concentrations 10 μg/ml to 0.64 ng/ml; 1:5 dilutions) and incubated for 30 min at 4° C. After washing, cells were incubated with a PE-conjugated AffiPure F(ab)₂ Fragment Goat anti-human IgG, Fc□ specific (Jackson Immunoresearch) for 30 min at 4° C. in the dark. Afterwards, cells were washed, fixed and measured using a BD FACS LSR Fortessa™.
Assay [9] deals with T6, cynomolgus FAP expressed on cells (cynomolgus).
T6 construct: whole, on cells
The experiment in a line: flow cytometry, cells expressing cynomolgus FAP.

Assay [10] concerns the target T2, human Fibroblast Activation Protein …. The experiment in a line: flow cytometry, human FAP-transfected HEK cells.
Experimental: as §2
Assay [11] deals with biotinylated recombinant cynomolgus FAP (cynomolgus). Put plainly: SPR (Biacore), biotinylated recombinant cynomolgus FAP.

T5 sequence (P27487 whole entry): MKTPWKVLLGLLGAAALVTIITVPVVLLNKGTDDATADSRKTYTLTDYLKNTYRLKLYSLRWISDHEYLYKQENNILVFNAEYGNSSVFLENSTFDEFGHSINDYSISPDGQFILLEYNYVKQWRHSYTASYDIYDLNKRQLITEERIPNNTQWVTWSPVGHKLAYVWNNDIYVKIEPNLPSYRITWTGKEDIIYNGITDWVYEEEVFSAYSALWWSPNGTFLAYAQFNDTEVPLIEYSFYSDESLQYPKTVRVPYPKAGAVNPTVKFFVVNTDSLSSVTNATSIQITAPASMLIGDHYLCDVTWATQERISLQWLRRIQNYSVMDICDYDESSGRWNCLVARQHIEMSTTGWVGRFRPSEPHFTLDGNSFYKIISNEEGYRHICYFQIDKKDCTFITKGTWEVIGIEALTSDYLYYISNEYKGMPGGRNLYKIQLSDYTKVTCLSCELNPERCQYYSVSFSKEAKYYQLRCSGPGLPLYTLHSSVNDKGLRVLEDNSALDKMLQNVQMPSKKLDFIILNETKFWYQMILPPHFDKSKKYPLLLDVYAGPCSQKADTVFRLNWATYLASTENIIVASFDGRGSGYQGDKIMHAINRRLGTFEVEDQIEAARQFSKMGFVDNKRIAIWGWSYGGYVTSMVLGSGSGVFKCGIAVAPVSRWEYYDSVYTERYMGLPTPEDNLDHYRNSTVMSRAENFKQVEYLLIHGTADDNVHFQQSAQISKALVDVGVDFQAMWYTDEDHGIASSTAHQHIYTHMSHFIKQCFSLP

B1: P1AE2423, CD40 (P1AE0817) x FAP (P1AE1689) (2+1) C-terminal crossfab fusion (bispecific antibody, human IgG1, kappa, L234A L235A)
light 1: QVQLVQSGAEVKKPGASVKVSCKASGYTLTDYNMDWVRQAPGQGLEWIGDIYPNTGGTIYNQKFKGRVTMTIDTSTSTVYMELSSLRSEDTAVYYCTRFRGIHYAMDYWGQGTTVTVSSASVAAPSVFIFPPSDEQLKSGTASVVCLLNNFYPREAKVQWKVDNALQSGNSQESVTEQDSKDSTYSLSSTLTLSKADYEKHKVYACEVTHQGLSSPVTKSFNRGEC
light 2: DIVMTQTPLSLSVTPGQPASISCRSSQSLVHSNGNTFLHWYLQKPGQSPQLLIYTVSNRFSGVPDRFSGSGSGTDFTLKISRVEAEDVGVYFCSQTTHVPWTFGGGTKVEIKRTVAAPSVFIFPPSDRKLKSGTASVVCLLNNFYPREAKVQWKVDNALQSGNSQESVTEQDSKDSTYSLSSTLTLSKADYEKHKVYACEVTHQGLSSPVTKSFNRGEC
heavy 1: not shown
heavy 2: QVQLVQSGAEVKKPGASVKVSCKASGYSFTGYYIHWVRQAPGQSLEWMGRVIPNAGGTSYNQKFKGRVTLTVDKSISTAYMELSRLRSDDTAVYYCAREGIYWWGQGTTVTVSSASTKGPSVFPLAPSSKSTSGGTAALGCLVEDYFPEPVTVSWNSGALTSGVHTFPAVLQSSGLYSLSSVVTVPSSSLGTQTYICNVNHKPSNTKVDEKVEPKSCDKTHTCPPCPAPEAAGGPSVFLFPPKPKDTLMISRTPEVTCVVVDVSHEDPEVKFNWYVDGVEVHNAKTKPREEQYNSTYRVVSVLTVLHQDWLNGKEYKCKVSNKALGAPIEKTISKAKGQPREPQVCTLPPSRDELTKNQVSLSCAVKGFYPSDIAVEWESNGQPENNYKTTPPVLDSDGSFFLVSKLTVDKSRWQQGNVFSCSVMHEALHNHYTQKSLSLSPG
notes: bivalent for CD40, monovalent for FAP; also called VL-CH1 fused to Fc
Turning to B1, in assay [1], the “EC50, two cell line bridging assay (SEAP of HEK-Blue CD40L reporter cells with FAP-expressing WM-266-4 cells)” value turned out to be 0.0032 nM. In addition, it took 5.19 nM to reach a half-maximal effect in assay [2] (EC50). This molecule also gave a concentration for a half-maximal effect (EC50) in [3] of 0.095 nM. Besides, in assay [4], binding was characterised by a dissociation constant (Kd) of 0.094 nM, the off-rate (koff) is 3.2e-05 s⁻¹ and the kon was 340000 M⁻¹ s⁻¹.

B2: P1AD9438_Fab (clone 212 Fab) (Fab, V domains shown)
VH: EVLLQQSGPELVKPGASVKIACKASGYTLTDYNMDWVRQSHGKSLEWIGDIYPNTGGTIYNQKFKGKATLTIDKSSSTAYMDLRSLTSEDTAVYYCTRFRGIHYAMDYWGQGTSVTVSS
VL: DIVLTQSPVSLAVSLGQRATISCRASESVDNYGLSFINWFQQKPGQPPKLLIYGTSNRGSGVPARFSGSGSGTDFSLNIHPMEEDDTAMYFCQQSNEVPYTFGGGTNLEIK
notes: Fab
For the molecule B2, the equilibrium dissociation constant (Kd) in assay [5] is 0.12 nM. For the same molecule, in [6], the equilibrium dissociation constant (Kd) was under 0.01 nM, the koff was under 1e-06 s⁻¹ and the association rate constant (kon) was 1.06e+06 M⁻¹ s⁻¹.

B3: murine anti-human FAP antibody clone 212 (hybridoma-derived) (antibody, IgG1, V domains shown)
VH: B2 VH
VL: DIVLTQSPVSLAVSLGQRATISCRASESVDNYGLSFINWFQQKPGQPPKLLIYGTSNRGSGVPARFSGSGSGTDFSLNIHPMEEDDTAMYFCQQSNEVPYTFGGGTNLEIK
notes: mu IgG1
Consider B3, for which, in assay [7], the binding result is given as “no binding (tested: 10 µg/ml)”.

B4: P1AD9438, anti-FAP clone 212 as huIgG1 P329G LALA (antibody, V domains shown)
VH: B2 VH
VL: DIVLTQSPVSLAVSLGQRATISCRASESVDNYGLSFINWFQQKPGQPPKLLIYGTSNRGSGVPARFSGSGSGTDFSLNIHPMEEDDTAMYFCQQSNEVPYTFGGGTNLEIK
Take B4: the EC50 is 0.118 µg/mL in [8], 0.3 µg/mL in [9] and 0.12 µg/mL in assay [10]. The Kd in assay [11] is 0.14 nM.
